B1: ANGPTL4: Recombinant human ANGPTL4 (Angiopoietin-like 4), full length, SEQ ID NO: 1, purchased from R&D Systems (protein, listed as Homo sapiens)
chain: MSGAPTAGAALMLCAATAVLLSAQGGPVQSKSPRFASWDEMNVLAHGLLQLGQGLREHAERTRSQLSALERRLSACGSACQGTEGSTDLPLAPESRVDPEVLHSLQTQLKAQNSRIQQLFHKVAQQQRHLEKQHLRIQHLQSQFGLLDHKHLDHEVAKPARRKRLPEMAQPVDPAHNVSRLHRLPRDCQELFQVGERQSGLFEIQPQGSPPFLVNCKMTSDGGWTVIQRRHDGSVDFNRPWEAYKAGFGDPHGEFWLGLEKVHSITGDRNSRLAVQLRDWDGNAELLQFSVHLGGEDTAYSLQLTAPVAGQLGATTVPPSGLSVPFSTWDQDHDLRRDKNCAKSLSGGWWFGTCSHSNLNGQYFRSIPQQRQKLKKGIFWKTWRGRYYPLQATTMLIQPMAAEAAS
B2: nANGPTL4: N-terminal fragment of ANGPTL4, aa 26-164, SEQ ID NO: 24, purchased from R&D Systems (protein)
chain: GPVQSKSPRFASWDEMNVLAHGLLQLGQGLREHAERTRSQLSALERRLSACGSACQGTEGSTDLPLAPESRVDPEVLHSLQTQLKAQNSRIQQLFHKVAQQQRHLEKQHLRIQHLQSQFGLLDHKHLDHEVAKPARRK
modifications: nANGPTL4
B3: cANGPTL4: C-terminal fragment of ANGPTL4, aa 164-406, fibrinogen-like domain, purchased from R&D Systems (protein, listed as Homo sapiens)
chain: RLPEMAQPVDPAHNVSRLHRLPRDCQELFQVGERQSGLFEIQPQGSPPFLVNCKMTSDGGWTVIQRRHDGSVDFNRPWEAYKAGFGDPHGEFWLGLEKVHSITGDRNSRLAVQLRDWDGNAELLQFSVHLGGEDTAYSLQLTAPVAGQLGATTVPPSGLSVPFSTWDQDHDLRRDKNCAKSLSGGWWFGTCSHSNLNGQYFRSIPQQRQKLKKGIFWKTWRGRYYPLQATTMLIQPMAAEAAS

How the values were obtained:
[1] = test system: Balb/c mice challenged with LPS; test: LPS-induced endotoxemia (sepsis) in mice; assay type: in vivo; conditions: for sepsis-associated mortality / survival rate: 2 μg/mouse i.v.
Description: FIG. 9: ANGPTL4 protects against LPS-induced endotoxemia by preventing vascular dysfunction and organ failure. A-B, Balb/c mice received LPS (5 mg kg-1, i.p.); 30 min after LPS challenge, mice received recombinant human ANGPTL4 (2 μg, intravenously), or vehicle as a control. A, A schematic representation of the protocol used. B, Survival curve (n=16 mice per group): **** P<0.0001; two-sided log-rank Mantel-Cox survival analysis. C,D, Balb/c mice received LPS (5 mg kg-1, i.p.); 30 min after LPS challenge, mice received nANGPTL4 (2 μg, intravenously), or vehicle as a control. C, A schematic representation of the protocol used. D, Survival curve (n=6 mice per group): ** P=0.0033; two-sided log-rank Mantel-Cox survival analysis. E, F, Balb/c mice received LPS (5 mg kg-1, i.p.); 30 min after LPS challenge, mice received Peptide 1 (2 μg, intravenously), or vehicle as a control. E, A schematic representation of the protocol used. F, Survival curve (n=6 mice per group): * P=0.0163; two-sided log-rank Mantel-Cox survival analysis. G, Balb/c mice received LPS (5 mg kg-1. i.p.): 30 min after LPS challenge, mice received recombinant human peptide P9 (2 μg. intravenously). or vehicle as a control. Survival curves (n=6 mice per group). *** P<0.001: two-sided log-rank Mantel-Cox survival analysis. H. Balb/c mice received LPS (4 mg kg-1. i.p.) together with anti-ANGPTL4 blocking antibody (10 μg kg-1. i.v) or vehicle as a control. 18 h after LPS challenge. mice were perfused with Evans blue for 1 h. were killed and brain were extracted. Quantification analysis of Evans blue extravasation (n=4 mice per group). Bars and error bars show the mean±s.e.m., respectively, from two independent experiments: *** P<0.001: NS, not significant (P>0.05) one-way ANOVA Tukey's multiple comparison test.
Female BALB/c mice, obtained from Janvier Labs, 9-10 weeks of age, were administered LPS at 5 mg/kg intraperitoneally and survival was monitored for 72 h (n=12 per group). BALB/c mice were randomly divided into 2 groups: LPS and LPS+Angptl4. Angptl4 (2 μg/mice) or vehicle (physiological saline solution) was administered intravenously 30 min after LPS challenge. In some experiments, blood serum, kidney and lung were collected at 18 h post-LPS challenge. Kidney and lungs were fixed in 4% PFA, embedded in paraffin, and 5-μm sections were cut from each block and stained with H&E. The stained sections were observed and acquired using a slide scanner (Lamina, Perkin Elmer). Analysis of the images was performed using ImageJ software (NIH).
Since severe endothelial dysfunction, leading to dysregulation of hemostasis and vascular dysfunction, is central to the progression to organ failure during sepsis, we analysed whether ANGPTL4 could play a protective role in sepsis, using a lipopolysaccharide (LPS)-induced endotoxemia (FIG. 9A). After LPS-challenge (5 mg kg-1, i.p.), all mice died within two days (FIG. 9B).

[2] = test system: SCID mice grafted with human skin infected with Nm 2C4.3; test: Vascular lesions in SCID mice grafted with human skin infected with N. meningitidis (4 h); assay type: in vivo; conditions: for vessel thrombosis in skin grafts / integrity of the endothelial cell junctions (VE-cadherin staining) / vascular colonization of human dermal vessels at 4 hours post-infection: 1 μg/mouse i.v.; for vessel thrombosis in skin grafts: 4 h post-infection
Description: FIG. 7: ANGPTL4 reduces signs of thrombosis, vascular injury and inflammation. A-D, SCID mice grafted with human skins were infected intravenously with Nm 2C4.3 wild-type strain (5×10^6 bacteria) or left uninfected. A period of 30 min or 2 h after bacterial challenge, mice received 1 μg of recombinant human ANGPTL4, nANGPTL4 or cANGPTL4 intravenously or the vehicle as a control. Mice were killed at 4 h post-challenge. This experiment was performed twice with n=3 or 4 mice per group, using skin from two different donors. A, A schematic representation of the protocols used in vivo. B, Control bacteraemia 4 h post-infection (mean±s.e.m.). C, Bacterial colonization within the skin grafts as assessed by immunofluorescence analysis was quantified using ImageJ software as the ratio between bacterial surface colonization and the lumen surface of the vessels. A total of 30-50 vessels per mouse were analysed. Error bars show mean±s.e.m. D, Thrombus formation within the skin grafts was assessed by immunofluorescence analysis and quantified using ImageJ as the ratio between thrombus surfaces and the lumen surface of the vessels. A total of 30-50 vessels per mouse were analysed. Error bars show mean±s.e.m.; *** P<0.0001; ns P=0.0541 two-tailed Student's t-test.
Six-week-old CB17/Icr-Prkdcscid female mice were obtained from Janvier Labs. Human skin tissues were obtained from adult patients undergoing plastic surgery in the Service de Chirurgie Plastique et Reconstructive of the Groupe Hospitalier Saint-Joseph. […] Experimental procedures were performed as previously described in accordance with the guidelines of the Institut National de la Santé et de la Recherche Médicale and conformed to the European ethical legislation (Directive 2010/63/EU). The experimental protocol was approved by the Animal Experimentation Ethics Committee of the Université Paris Descartes (consent forms CEEA34.O.J.L.039.12 and 2018012515596498). […]. A skin flap was created and a full thickness human skin graft was placed onto the wound bed. The transplants were held in place with 6-0 non-absorbable monofilament suture materials, and the flap was then sutured above the transplant. Grafted mice were infected 4-6 weeks after human skin transplantation. N. meningitidis was grown overnight at 37° C. on GCB agar plates prepared without iron and supplemented with 15 μM deferoxamine (Desferal, Novartis). Bacterial colonies were harvested and cultured in RPMI media with 1% BSA medium and 0.06 μM deferoxamine with gentle agitation to reach the exponential phase of growth. Bacteria were then resuspended in physiological saline solution. Mice were infected intravenously with 200 μl (5×10^6 bacteria) of this bacterial suspension. A 10 mg dose of human holotransferrin (R&D Systems) was administered intraperitoneally just before infection. Mice were killed at 4 h after infection. Human skin grafts were carefully collected using a sterile cutter. The tissue was washed in PBS and fixed overnight at 4° C. in 4% paraformaldehyde in phosphate buffer. After washing in phosphate buffer, the specimens were embedded in OCT medium and then frozen at −80° C. Sections of the dermis (7 μm thick) were immobilized on Superfrost Plus microscope slides and subjected to immunofluorescence analysis. Sections were incubated with the primary antibodies for 1 h in PBS/3% BSA then DAPI was added to Alexa-conjugated secondary antibodies for 1 h. After additional washing, coverslips were mounted in glycergel (Dako) and were further analysed using a slide scanner (Lamina, Perkin Elmer). Analysis of the images was performed using ImageJ software (NIH). […]

[3] = 18 h post-LPS challenge, data not shown

Molecule | LPS-induced acute lung injury (histopathology) [1, 3] | LPS-induced renal haemorrhage [1, 3] | sepsis-associated mortality / survival rate ([1]; LPS 5 mg kg-1 i.p.) | mice surviving LPS challenge ([1]; LPS 5 mg kg-1 i.p., 2 μg/mouse i.v. 30 min after LPS, all control mice died within two days) | overall weight loss ([1]; compared to vehicle-treated control groups) | body temperature ([1]; data not shown) | vessel thrombosis in skin grafts [2] | integrity of the endothelial cell junctions (VE-cadherin staining) ([2]; data not shown) | effect on inflammatory markers upon administration at 2 h ([2]; administration 2 h post-infection, data not shown) | reduction of serum levels of TNF-α, IL-6, IL-8, soluble E-selectin, ICAM-1, VCAM-1, Angiopoetin-2, Thrombomodulin ([2]; mice sera, early administration (30 min), data not shown) | vascular colonization of human dermal vessels at 4 hours post-infection [2] | production of proinflammatory factors and biomarkers of vascular inflammation ([2]; 1 μg/mouse, data not shown)
B1 | no pathological signs | no sign of haemorrhage | markedly reduced sepsis-associated mortality rate | 80% | not significantly reduced | rapidly stabilized | largely reduced vessel thrombosis | preserved the integrity of the endothelial cell junctions | no effect | 60-80% | – | –
B2 | – | – | reduced sepsis-associated mortality rate as efficiently as the full-length protein | – | – | – | reduced vessel thrombosis | preserved the integrity of the endothelial cell junctions | – | – | no effect on vascular colonization | –
B3 | – | – | did not significantly increased the survival rate | – | – | – | reduced vessel thrombosis | – | – | – | no effect on vascular colonization | most efficient at preventing the production of proinflammatory factors and biomarkers of vascular inflammation

— patent publication US20250163116A1, “NEW METHOD TO TREAT INFECTIOUS DISEASES” (INSERM (INSTITUT NATIONAL DE LA SANTÉ ET DE LA RECHERCHE …, priority 2022, published 2025)
